The results in this text go back to patent US20030078221.

One data set has as its target Complement C1q (Homo sapiens?) (UniProt P02745+P02746+P02747). Briefly: filter. The settings on record: MgPBS 37C.
Data set [1] addresses Complement C5 (Homo sapiens) (UniProt P01031+P01031). Briefly: filter. To be noted: 2'-F pyrimidines.

Broadly, the Kd is a measure of binding affinity in units of concentration. A low value points to tighter binding.

Sequence of Complement C1q (Homo sapiens?) (P02745 23-245, chain 1 of 3): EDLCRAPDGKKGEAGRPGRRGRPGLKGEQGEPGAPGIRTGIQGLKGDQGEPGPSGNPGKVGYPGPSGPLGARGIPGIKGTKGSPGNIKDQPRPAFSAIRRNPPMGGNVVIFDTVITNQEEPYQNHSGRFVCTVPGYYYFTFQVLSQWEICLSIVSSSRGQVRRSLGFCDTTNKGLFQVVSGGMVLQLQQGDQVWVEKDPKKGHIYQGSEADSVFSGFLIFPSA
Sequence of Complement C1q (Homo sapiens?) (P02746 28-253, chain 2 of 3): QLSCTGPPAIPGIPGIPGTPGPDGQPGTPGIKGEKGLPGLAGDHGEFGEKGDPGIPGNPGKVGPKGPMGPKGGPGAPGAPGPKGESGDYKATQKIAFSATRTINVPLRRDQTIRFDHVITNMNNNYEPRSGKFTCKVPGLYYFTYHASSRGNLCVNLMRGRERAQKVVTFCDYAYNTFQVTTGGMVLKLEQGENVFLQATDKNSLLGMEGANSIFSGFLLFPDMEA
Sequence of Complement C1q (Homo sapiens?) (P02747 29-245, chain 3 of 3): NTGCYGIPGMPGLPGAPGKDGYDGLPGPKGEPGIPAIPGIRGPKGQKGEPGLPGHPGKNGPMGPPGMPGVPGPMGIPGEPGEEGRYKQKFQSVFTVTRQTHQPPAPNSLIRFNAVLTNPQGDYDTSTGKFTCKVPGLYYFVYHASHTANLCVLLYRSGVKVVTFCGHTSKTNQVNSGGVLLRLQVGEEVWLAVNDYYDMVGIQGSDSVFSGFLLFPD

In the data set with Complement C1q (2'-NH2 pyrimidines), “GGGAGGACGAUGCGGNNNNNNNNNNNNNNNNNNNNNNNNNNNNNNNNNNNNNNNNNNNNNNNNNNCAGACGACUCGCCCGA [random 50N7 2'-NH2 RNA pool]” came in with a Kd of 2.3 µM.
In the case of “GGGAGGACGAUGCGGUGUUCAGCAUUCAGNAUCUUCACGUGUCGUCAGACGACUCGCCCGA [G3]”, the Kd in data set [1] (MgPBS 37C) is 0.055 µM.
“GGGAGGACGAUGCGGNNNNNNNNNNNNNNNNNNNNNNNNNNNNNNCAGACGACUCGCCCGA [random 30N7 2'-F RNA pool]”: the Kd was above 0.001 µM in data set [1] (random pool, likely should be larger) and 2.3 µM with Complement C1q (2'-F pyrimidines).
